Reference: patent US20230136228A1 (LAMKAP BIO ALPHA, published 2023)
Where a chain is given by its changes, count along the chain named. Names may count otherwise.

T1: shed soluble CEACAM5 (sCEA) (human, UniProt P06731 35-685, limits assumed)
T1 sequence (looked up): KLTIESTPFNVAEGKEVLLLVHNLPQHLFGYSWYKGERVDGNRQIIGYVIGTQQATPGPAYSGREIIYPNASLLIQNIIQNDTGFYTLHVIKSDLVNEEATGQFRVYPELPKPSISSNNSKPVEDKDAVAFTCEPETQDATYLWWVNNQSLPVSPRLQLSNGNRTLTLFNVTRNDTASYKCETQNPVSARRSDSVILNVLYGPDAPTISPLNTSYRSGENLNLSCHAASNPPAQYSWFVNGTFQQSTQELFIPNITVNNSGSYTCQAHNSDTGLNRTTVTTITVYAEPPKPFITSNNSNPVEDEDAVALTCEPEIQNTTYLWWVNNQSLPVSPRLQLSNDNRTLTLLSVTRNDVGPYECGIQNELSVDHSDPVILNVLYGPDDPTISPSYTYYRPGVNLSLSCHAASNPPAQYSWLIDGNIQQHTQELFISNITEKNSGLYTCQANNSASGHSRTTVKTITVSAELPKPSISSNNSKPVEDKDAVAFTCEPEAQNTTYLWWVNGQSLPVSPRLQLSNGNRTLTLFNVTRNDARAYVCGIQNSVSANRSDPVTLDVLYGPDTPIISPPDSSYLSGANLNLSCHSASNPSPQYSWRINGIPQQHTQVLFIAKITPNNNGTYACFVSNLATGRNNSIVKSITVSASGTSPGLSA

T2: human CEACAM1 (human, UniProt P13688 35-526)
T2 construct: whole, on cells
T2 sequence (looked up): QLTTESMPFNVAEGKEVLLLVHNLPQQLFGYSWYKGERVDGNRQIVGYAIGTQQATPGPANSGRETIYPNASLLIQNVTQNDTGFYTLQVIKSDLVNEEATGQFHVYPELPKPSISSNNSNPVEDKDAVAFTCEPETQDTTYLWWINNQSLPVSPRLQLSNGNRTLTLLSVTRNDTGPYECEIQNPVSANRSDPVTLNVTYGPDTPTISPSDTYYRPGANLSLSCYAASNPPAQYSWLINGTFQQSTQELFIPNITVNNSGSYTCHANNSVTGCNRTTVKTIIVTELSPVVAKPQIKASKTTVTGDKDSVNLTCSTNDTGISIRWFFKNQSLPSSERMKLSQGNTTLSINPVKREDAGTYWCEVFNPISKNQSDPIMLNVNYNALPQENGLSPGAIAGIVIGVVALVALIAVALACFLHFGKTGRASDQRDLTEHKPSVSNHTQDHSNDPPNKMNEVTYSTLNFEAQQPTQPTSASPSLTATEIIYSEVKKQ

T3: human CEACAM6 (human, UniProt P40199 35-320)
T3 construct: whole, on cells; also called CD66c
T3 sequence (looked up): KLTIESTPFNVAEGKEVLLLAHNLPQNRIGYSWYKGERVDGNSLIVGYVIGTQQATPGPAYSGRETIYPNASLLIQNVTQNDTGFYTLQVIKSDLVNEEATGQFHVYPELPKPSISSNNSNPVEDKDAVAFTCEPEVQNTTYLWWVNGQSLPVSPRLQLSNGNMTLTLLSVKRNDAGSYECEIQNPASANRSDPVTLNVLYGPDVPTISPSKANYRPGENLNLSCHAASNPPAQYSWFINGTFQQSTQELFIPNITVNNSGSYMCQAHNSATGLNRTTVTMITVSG

T4: human CEACAM8 (human, UniProt P31997 35-320)
T4 construct: whole, on cells
T4 sequence (looked up): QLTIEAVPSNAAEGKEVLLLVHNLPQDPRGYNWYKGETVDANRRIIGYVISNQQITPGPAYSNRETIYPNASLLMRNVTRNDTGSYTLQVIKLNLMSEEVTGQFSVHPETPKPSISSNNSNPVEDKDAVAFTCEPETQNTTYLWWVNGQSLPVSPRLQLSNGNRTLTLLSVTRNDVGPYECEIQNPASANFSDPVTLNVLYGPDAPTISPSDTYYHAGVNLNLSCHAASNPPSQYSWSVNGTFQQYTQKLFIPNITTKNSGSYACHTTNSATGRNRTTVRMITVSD

B1: AB17L3-1/N (bispecific antibody, human IgG1, kappa, lambda, L234A L235A)
heavy: EVQLVESGGGLVQPGGSLKLSCAASGFTFNTYAMNWVRQAPGKGLEWVGRIRSKYNNYATYYADSVKDRFTISRDDSKNTAYLQMNSLKTEDTAVYYCVRHGNFGNSYVSWFAYWGQGTLVTVSSASTKGPSVFPLAPSSKSTSGGTAALGCLVKDYFPEPVTVSWNSGALTSGVHTFPAVLQSSGLYSLSSVVTVPSSSLGTQTYICNVNHKPSNTKVDKRVEPKSCDKTHTCPPCPAPEAAGGPSVFLFPPKPKDTLMISRTPEVTCVVVDVSHEDPEVKFNWYVDGVEVHNAKTKPREEQYNSTYRVVSVLTVLHQDWLNGKEYKCKVSNKALAAPIEKTISKAKGQPREPQVYTLPPSREEMTKNQVSLTCLVKGFYPSDIAVEWESNGQPENNYKTTPPVLDSDGSFFLYSKLTVDKSRWQQGNVFSCSVMHEALHNHYTQKSLSLSPG
light 1: EIVLTQSPATLSLSPGERATLSCRASQSVNSNLNWYQQKPGQAPRLLIYHGSNRATGIPARFSGSGSGTDFTLTISSLEPEDFAVYYCQQFDYFKEHNTFGQGTKVEIKRTVAAPSVFIFPPSDEQLKSGTASVVCLLNNFYPREAKVQWKVDNALQSGNSQESVTEQDSKDSTYSLSSTLTLSKADYEKHKVYACEVTHQGLSSPVTKSFNRGEC
light 2: QTVVTQEPSLTVSPGGTVTLTCRSSTGAVTTSNYANWFQQKPGQAPRGLIGGTNKRAPGTPARFSGSLLGGKAALTLSGAQPEDEAEYYCALWYKQRWVFGGGTKLTVLGQPKAAPSVTLFPPSSEELQANKATLVCLISDFYPGAVTVAWKADSSPVKAGVETTTPSKQSNNKYAASSYLSLTPEQWKSHRSYSCQVTHEGSTVEKTVAPTECS
notes: Kappa-lambda body, lead optimization wave 1
B2: AB71L3-1/N (bispecific antibody, human IgG1, kappa, lambda, L234A L235A)
heavy: B1 heavy
light 1: B1 light 1 with G51S, A55P, T56H
light 2: B1 light 2
notes: Kappa-lambda body, lead optimization wave 2
B3: AB72L3-1/N (bispecific antibody, human IgG1, kappa, lambda, L234A L235A)
heavy: B1 heavy
light 1: B1 light 1 with G51S, S52T, A55P, T56R, H97Y
light 2: B1 light 2
notes: as for B2
B4: AB73L3-1/N (bispecific antibody, human IgG1, kappa, lambda, L234A L235A)
heavy: B1 heavy
light 1: B1 light 1 with G51S, S52N, A55P, T56H, K95R, H97Y
light 2: B1 light 2
notes: as for B2
B5: AB1L3-1/N (bispecific antibody, human IgG1, kappa, lambda, L234A L235A)
heavy: B1 heavy
light 1: B1 light 1 with Y93L, F94R, K95H
light 2: B1 light 2
notes: Kappa-lambda body: common heavy chain (hIgG1 L234A+L235A+P329A), kappa CEA light chain AB1, lambda CD3 light chain L3-1 (1A4); also called parental KL bispecific antibody

Each binder was assayed against T1, shed soluble CEACAM5 (sCEA) (assay: cell-based or functional assay).

| Binder | EC50 fold change compared to no shed CEA condition, sCEA 0 µg/mL (reference) | EC50 fold change compared to no shed CEA condition, sCEA 0.2 µg/mL | EC50 fold change compared to no shed CEA condition, sCEA 1 µg/mL | EC50 fold change compared to no shed CEA condition, sCEA 5 µg/mL |
| --- | --- | --- | --- | --- |
| B1 | 1 fold | 3.2 fold | 5 fold | 11 fold |
| B2 | 1 fold | 0.6 fold | 4.2 fold | 5.5 fold |
| B3 | 1 fold | 1.2 fold | 2.4 fold | 7.3 fold |
| B4 | 1 fold | 0.8 fold | 2.9 fold | 7.4 fold |

What follows are binders tested against T2, human CEACAM1 (assay: flow cytometry, transfected PEAK cells, 10 mcg/ml).
Source text: (§1) Vectors encoding the full-length version of human CEACAM 1, 3, 4, 5, 6, 7, 8, 18, 19, 20 and […] are used to express these proteins at the surface of PEAK and/or CHO cells as described in Example 1. Similarly, vectors encoding the full-length version of cyno CEACAM 5 and 6 are also used to express these proteins at the surface of PEAK and/or CHO cells. Non-transfected PEAK and/or CHO cells are used as negative control. Cells are harvested, counted, checked for viability and resuspended at 3×10⁶ cells/ml in FACS buffer (PBS 2% BSA, 0.1% NaN₃). 100 μl of the cell suspension are distributed in V-bottom 96-well plates (3×10⁵ cells/well). The supernatant is removed by centrifugation 3 minutes at 4° C., 1300 rpm and the cells incubated for 15 minutes at 4° C. with increasing concentrations of the antibody according to the invention. The antibodies carrying the anti-CEACAM5 arms to test are diluted in FACS buffer and the concentration range is 30 pM-500 nM. Cells are washed twice with cold FACS buffer and re-incubated for further 15 minutes at 4° C. with a compatible anti-human IgG secondary antibody. Cells are washed twice with cold FACS buffer and resuspended in 300 μl FACS buffer with 1:1500-diluted TOPRO-3 (Invitrogen). Fluorescence is measured using a FACSCalibur™ (BD Biosciences) or a Cytoflex Platform (Beckman Coulter). Dose-response binding curves are fitted using GraphPad Prism8 software. In the same manner, CEACAM1, CEACAM6 and other CEACAMs can be characterized.
(§2) For the bispecific antibodies AB17L3-1/N, AB71L3-1/N, AB72L3-1/N, AB73L3-1/N the MFI measured for binding to CEACAM5 transfected cells was found between 29000 and 41000 (Table 2). In contrast MFI found by using PEAK cells transfected with CEACAM 1,3,4,6,8 were found below 1000 with the only exception of a strong signal for AB72L3-1/N on CEACAM8 transfected cells. When MFI values obtained on transfected cells expressing any given CEACAM are divided by the values obtained on WT PEAK cells, “factors to PEAK WT” can be calculated (Table 3).

| Binder | MFI |
| --- | --- |
| B1 | 652 MFI |
| B5 | 441 MFI |
| B2 | 451 MFI |
| B3 | 652 MFI |
| B4 | 542 MFI |

These binders were tested against T3, human CEACAM6 (assay: flow cytometry, transfected PEAK cells, 10 mcg/ml).
Source text: as §1, §2

| Binder | MFI |
| --- | --- |
| B1 | 541 MFI |
| B5 | 373 MFI |
| B2 | 420 MFI |
| B3 | 562 MFI |
| B4 | 490 MFI |

The binders below were run against T4, human CEACAM8 (assay: flow cytometry, transfected PEAK cells, 10 mcg/ml).
Source text: as §1, §2

| Binder | MFI |
| --- | --- |
| B1 | 411 MFI |
| B5 | 343 MFI |
| B2 | 391 MFI |
| B3 | 6290 MFI |
| B4 | 401 MFI |
